Measurements: patent US20220220224A1 (Hoffmann-La Roche, published 2022)
Residue numbers refer to the chain shown, from its start. In names and notes the source's numbering stands.

B1: 15H7 IgG (antibody, V domains shown)
VH: QVQLVQSGAEVKKPGASVKVSCKASGYTFTSYYMHWVRQAPGQGLEWMGIINPSGGSTSYAQKFQGRVTMTRDTSTSTVYMELSSLRSEDTAVYYCARNYYLFSTSFDYWGQGTLVTVSS
VL: QAVVTQEPSLTVSPGGTVTLTCGSSTGAVTTSNYANWVQEKPGQAFRGLIGGTNKRAPGTPARFSGSLLGGKAALTLSGAQPEDEAEYYCALWYSNLWVFGGGTKLTVL
notes: human IgG1
B2: 18D3 IgG (antibody, V domains shown)
VH: QVQLVQSGAEVKKPGASVKVSCKASGYTFTSYYMHWVRQAPGQGLEWMGIINPSGGSTSYAQKFQGRVTMTRDTSTSTVYMELSSLRSEDTAVYYCARNYYTGGSSAFDYWGQGTLVTVS
VL: B1 VL
notes: human IgG1
B3: 16A3 IgG (antibody, V domains shown)
VH: B1 VH with L102A, F103G, S104V, S106P
VL: B1 VL
notes: human IgG1
B4: 21D1 IgG (antibody, V domains shown)
VH: B1 VH with L102V, F103G, S104V, T105S, S106P
VL: B1 VL
notes: human IgG1
B5: 16D5 IgG variant S35H/wt (HC/LC) (antibody, V domains shown)
VH: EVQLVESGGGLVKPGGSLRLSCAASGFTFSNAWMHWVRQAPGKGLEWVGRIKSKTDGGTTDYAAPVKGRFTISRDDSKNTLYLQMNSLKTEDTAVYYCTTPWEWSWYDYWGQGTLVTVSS
VL: B1 VL
notes: IgG
B6: 16D5 IgG variant W96Y/wt (HC/LC) (antibody, V domains shown)
VH: not shown
VL: B1 VL
notes: IgG
B7: 16D5 IgG variant S35H/S93A (HC/LC) (antibody, V domains shown)
VH: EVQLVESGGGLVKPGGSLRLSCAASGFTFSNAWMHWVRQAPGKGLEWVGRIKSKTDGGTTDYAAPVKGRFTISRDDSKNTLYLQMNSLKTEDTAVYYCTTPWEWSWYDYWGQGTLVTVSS
VL: B1 VL with A2T, E40Q, F46P, A80V, S95A
notes: IgG
B8: 16D5 IgG variant W96Y/S93A (HC/LC) (antibody, V domains shown)
VH: not shown
VL: B1 VL with A2T, E40Q, F46P, A80V, S95A
notes: IgG
B9: 16D5 IgG variant R50S/S93A (HC/LC) (antibody, V domains shown)
VH: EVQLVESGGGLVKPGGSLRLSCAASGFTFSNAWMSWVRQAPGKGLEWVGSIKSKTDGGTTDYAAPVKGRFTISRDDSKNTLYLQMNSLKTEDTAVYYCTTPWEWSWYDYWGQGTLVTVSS
VL: B1 VL with A2T, E40Q, F46P, A80V, S95A
notes: IgG
B10: 16D5 IgG variant G49S/S93A (HC/LC) (antibody, V domains shown)
VH: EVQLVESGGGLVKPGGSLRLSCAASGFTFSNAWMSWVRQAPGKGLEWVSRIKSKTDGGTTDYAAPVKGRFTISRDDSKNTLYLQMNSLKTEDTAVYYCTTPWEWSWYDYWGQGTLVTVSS
VL: B1 VL with A2T, E40Q, F46P, A80V, S95A
notes: IgG
B11: 16D5 IgG variant G49S/K53A (HC/LC) (antibody, V domains shown)
VH: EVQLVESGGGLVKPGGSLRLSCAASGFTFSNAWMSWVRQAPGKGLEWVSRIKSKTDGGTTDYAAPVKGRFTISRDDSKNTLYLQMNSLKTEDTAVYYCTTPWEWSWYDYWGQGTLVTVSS
VL: B1 VL with A2T, E40Q, F46P, K55A, A80V
notes: IgG
B12: 16D5 IgG variant R50S/K53A (HC/LC) (antibody, V domains shown)
VH: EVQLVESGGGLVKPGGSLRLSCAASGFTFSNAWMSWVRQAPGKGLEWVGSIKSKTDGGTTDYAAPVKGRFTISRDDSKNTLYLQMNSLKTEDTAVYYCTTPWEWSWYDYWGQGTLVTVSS
VL: B1 VL with A2T, E40Q, F46P, K55A, A80V
notes: IgG
B13: 15H7 Fab (Fab, V domains shown)
VH: B1 VH
VL: B1 VL
notes: bacterial Fab
B14: 19E5 Fab (Fab, V domains shown)
VH: B1 VH with N99G, Y100E, Y101W, L102R, F103R, S104Y
VL: B1 VL
notes: bacterial Fab
B15: 16D5 IgG variant S35H/K53A (HC/LC) (antibody, V domains shown)
VH: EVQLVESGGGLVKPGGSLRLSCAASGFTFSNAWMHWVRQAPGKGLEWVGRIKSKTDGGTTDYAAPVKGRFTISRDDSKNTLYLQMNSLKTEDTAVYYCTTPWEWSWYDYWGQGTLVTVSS
VL: B1 VL with A2T, E40Q, F46P, K55A, A80V
notes: IgG

The binders below were run against T1, recombinant biotinylated monomeric Fc fusion of human Folate Receptor 2 (hu FolR2 ECD-AcTev-Fcknob-Avi tag … (human, UniProt P0DOX5 223-449 = IgG part, biotin on the C-terminal Avi tag)) (assay: SPR Biacore, single injection on immobilized antigen-Fc).
T1 construct: also called FolR2-Fc
Experimental: (§1) Binding of FolR1 binders as IgG or in the T-cell bispecific format to different recombinant folate receptors (human FolR1, 2 and 3, murine FolR1 and cynomolgus FolR1; all as Fc fusions) was assessed by surface plasmon resonance (SPR). All SPR experiments were performed on a Biacore T200 at 25° C. with HBS-EP as running buffer (0.01 M HEPES pH 7.4, 0.15 M NaCl, 3 mM EDTA, 0.005% Surfactant P20, Biacore, Freiburg/Germany).
(§2) First the anti-FolR1 IgGs were analyzed by single injections (Table 1) to characterize their crossreactivity (to human, murine and cyno FolR1) and specificity (to human FolR1, human FolR2, human FolR3). Recombinant biotinylated monomeric Fc fusions of human, cynomolgus and murine Folate Receptor 1 (FolR1-Fc) or human Folate Receptor 2 and 3 (FolR2-Fc, FolR3-Fc) were directly coupled on a SA chip using the standard coupling instruction (Biacore, Freiburg/Germany). The immobilization level was about 300-400 RU. The IgGs were injected for 60 seconds at a concentration of 500 nM.

| binding result | Binder |
| --- | --- |
| no binding (tested: 500 nM) | B1 |
| no binding (tested: 500 nM) | B2 |
| no binding (tested: 500 nM) | B3 |
| no binding (tested: 500 nM) | B4 |

These binders were tested against T2, recombinant biotinylated monomeric Fc fusion of human Folate Receptor 3 (hu FolR3 ECD-AcTev-Fcknob-Avi tag … (human, UniProt P0DOX5 223-449 = IgG part, biotin on the C-terminal Avi tag)) in the same assay as above.
T2 construct: also called FolR3-Fc
Experimental: as §1, §2

| binding result | Binder |
| --- | --- |
| no binding (tested: 500 nM) | B1 |
| no binding (tested: 500 nM) | B2 |
| no binding (tested: 500 nM) | B3 |
| no binding (tested: 500 nM) | B4 |

What follows are binders tested against T3, recombinant biotinylated monomeric Fc fusion of human Folate Receptor 1 (huFolR1 ECD-AcTev-Fcknob-Avi tag … (human, UniProt P0DOX5 223-449 = IgG part, biotin on the C-terminal Avi tag)) (assay: SPR Biacore, affinity (monovalent), antibody captured via anti-Fab).
T3 construct: also called huFolR1-Fc; human FolR1-Fc
Experimental: The affinity of the interaction between the anti-FolR1 IgGs or the T cell bispecifics and the recombinant folate receptors was determined as described below (Table 42).
For affinity measurement, direct coupling of around 10000 resonance units (RU) of the anti-human Fab specific antibody (Fab capture kit, GE Healthcare) was performed on a CM5 chip at pH 5.0 using the standard amine coupling kit (GE Healthcare). Anti-FolR1 IgGs or T cell bispecifics were captured at 200 nM with a flow rate of 10 ul/min for 40 sec, the reference flow cell was left without capture. Dilution series (12.35 to 3000 nM) of human Folate Receptor 1 Fc fusion were passed on all flow cells at 30 μl/min for 240 sec to record the association phase. The dissociation phase was monitored for 300 s and triggered by switching from the sample solution to HBS-EP. The chip surface was regenerated after every cycle using a double injection of 60 sec 10 mM Glycine-HCl pH 1.5. Bulk refractive index differences were corrected for by subtracting the response obtained on the reference flow cell 1. The affinity constants for the interactions were derived from the rate constants by fitting to a 1:1 Langmuir binding using the Bia Evaluation software (GE Healthcare).

| Kd | koff | kon | Binder |
| --- | --- | --- | --- |
| 1200 nM | 0.0113 s⁻¹ | 8960 M⁻¹ s⁻¹ | B5 |
| 550 nM | 0.00544 s⁻¹ | 9950 M⁻¹ s⁻¹ | B6 |
| 1300 nM | 0.0112 s⁻¹ | 8430 M⁻¹ s⁻¹ | B7 |
| 420 nM | 0.0172 s⁻¹ | 40500 M⁻¹ s⁻¹ | B8 |
| 780 nM | 0.0123 s⁻¹ | 15700 M⁻¹ s⁻¹ | B9 |
| 760 nM | 0.00799 s⁻¹ | 10500 M⁻¹ s⁻¹ | B10 |
| 1900 nM | 0.0174 s⁻¹ | 9190 M⁻¹ s⁻¹ | B11 |
| 1800 nM | 0.0245 s⁻¹ | 13500 M⁻¹ s⁻¹ | B12 |

What follows are binders tested against T1, recombinant biotinylated monomeric Fc … (assay: SPR ProteOn, Fab analyte on immobilized antigen-Fc).
Experimental: (§3) Immobilization of antigens (ligand): Recombinant antigens were diluted with PBST (10 mM phosphate, 150 mM sodium chloride pH 7.4, 0.005% Tween 20) to 10 μg/ml, then injected at 30 μl/minute in vertical orientation. Injection of analytes: For ‘one-shot kinetics’ measurements, injection direction was changed to horizontal orientation, two-fold dilution series of purified Fab (varying concentration ranges) were injected simultaneously along separate channels 1-5, with association times of 200 s, and dissociation times of 600 s. Buffer (PBST) was injected along the sixth channel to provide an “in-line” blank for referencing. Association rate constants (kₒₙ) and dissociation rate constants (koff) were calculated using a simple one-to-one Langmuir binding model in ProteOn Manager v3.1 software by simultaneously fitting the association and dissociation sensorgrams. The equilibrium dissociation constant (KD) was calculated as the ratio koff/kₒₙ.

| binding result | Binder |
| --- | --- |
| no binding | B13 |

These binders were tested against T2, recombinant biotinylated monomeric Fc … (assay: SPR ProteOn, Fab analyte on immobilized antigen-Fc).
Experimental: as §3

| binding result | Binder |
| --- | --- |
| no binding | B13 |

Each binder was assayed against T4, recombinant biotinylated monomeric Fc fusion of cynomolgus Folate Receptor 1 (cy FolR1 ECD-AcTev-Fcknob-Avi … (cynomolgus, UniProt P0DOX5 223-449 = IgG part, biotin on the C-terminal Avi tag)) (assay: SPR ProteOn, Fab analyte on immobilized antigen-Fc).
T4 construct: also called cyFolR1-Fc; cyno FolR1
Experimental: as §3

| Kd | Binder |
| --- | --- |
| 276 nM | B14 |
| 72.5 nM | B13 |

The binders below were run against T3, recombinant biotinylated monomeric Fc … (assay: SPR Biacore, avidity (bivalent, apparent KD), antigen-Fc on SA chip).
Experimental: (§4) The avidity of the interaction between the anti-FolR1 IgGs or T cell bispecifics and the recombinant folate receptors was determined as described below (Table 41).
(§5) Recombinant biotinylated monomeric Fc fusions of human, cynomolgus and murine Folate Receptor 1 (FolR1-Fc) were directly coupled on a SA chip using the standard coupling instruction (Biacore, Freiburg/Germany). The immobilization level was about 300. […] The dissociation was monitored for 240 or 600 seconds. Bulk refractive index differences were corrected for by subtracting the response obtained on reference flow cell immobilized with recombinant biotinylated murine IL2 receptor Fc fusion. The binding curves resulting from the bivalent binding of the IgG or T cell bispecifics were approximated to a 1:1 Langmuir binding (even though it is a 1:2 binding) and fitted with that model to get an apparent KD representing the avidity of the bivalent binding. The apparent avidity constants for the interactions were derived from the rate constants of the fitting using the Bia Evaluation software (GE Healthcare). For low affinity kinetics with association and dissociation phases too fast to be fitted by the 1:1 Langmuir binding model, the steady state analysis model was applied using the Bia Evaluation software (GE Healthcare). The steady state analysis gives the KD of the binding reaction at equilibrium.

| Kd | koff | kon | Binder |
| --- | --- | --- | --- |
| 40 nM | 0.00568 s⁻¹ | 132000 M⁻¹ s⁻¹ | B5 |
| 20 nM | 0.00213 s⁻¹ | 129000 M⁻¹ s⁻¹ | B6 |
| 90 nM | 0.022 s⁻¹ | 243000 M⁻¹ s⁻¹ | B7 |
| 30 nM | 0.0189 s⁻¹ | 655000 M⁻¹ s⁻¹ | B8 |
| 30 nM | 0.00323 s⁻¹ | 125000 M⁻¹ s⁻¹ | B9 |
| 20 nM | 0.00306 s⁻¹ | 152000 M⁻¹ s⁻¹ | B10 |
| 1400 nM | 0.0291 s⁻¹ | 21000 M⁻¹ s⁻¹ | B15 |
| 60 nM | 0.0115 s⁻¹ | 190000 M⁻¹ s⁻¹ | B11 |
| 60 nM | 0.0197 s⁻¹ | 328000 M⁻¹ s⁻¹ | B12 |

The binders below were run against T4, recombinant biotinylated monomeric Fc … in the same assay as above.
Experimental: as §4, §5

| Kd | koff | kon | Binder |
| --- | --- | --- | --- |
| 55 nM | 0.0124 s⁻¹ | 223000 M⁻¹ s⁻¹ | B5 |
| 10 nM | 0.00211 s⁻¹ | 173000 M⁻¹ s⁻¹ | B6 |
| 110 nM | 0.0677 s⁻¹ | 612000 M⁻¹ s⁻¹ | B7 |
| 30 nM | 0.0174 s⁻¹ | 625000 M⁻¹ s⁻¹ | B8 |
| 20 nM | 0.0078 s⁻¹ | 439000 M⁻¹ s⁻¹ | B9 |
| 20 nM | 0.00622 s⁻¹ | 358000 M⁻¹ s⁻¹ | B10 |
| 1100 nM | 0.0404 s⁻¹ | 34700 M⁻¹ s⁻¹ | B15 |
| 80 nM | 0.0328 s⁻¹ | 393000 M⁻¹ s⁻¹ | B11 |
| 80 nM | 0.0455 s⁻¹ | 550000 M⁻¹ s⁻¹ | B12 |
